{
  "source": "patent US20200164014A1",
  "about": "“MESENCHYMAL STEM CELL ATTRACTING AGENT” (Shiseido Company, Ltd., priority 2017, published 2020)",
  "molecules": {"B1": {"name": "IGFBP7: insulin-like growth factor binding protein 7, purchased protein, candidate aging factor (protein, UniProt Q16270 27-282, looked up)", "Insulin-like growth …": "SSSDTCGPCEPASCPPLPPLGCLLGETRDACGCCPMCARGEGEPCGGGGAGRGYCAPGMECVKSRKRRKGKAGAAAGGPGVSGVCVCKSRYPVCGSDGTTYPSGCQLRAASQRAESRGEKAITQVSKGTCEQGPSIVTPPKDIWNVTGAQVYLSCEVIGIPTPVLIWNKVKRGHYGVQRTELLPGDRDNLAIQTRGGPEKHEVTGWVLVSPLSKEDAGEYECHASNSQGQASASAKITVVDALHEIPVKKGEGAEL"}, "B2": {"name": "RSPO4: R-spondin family, member 4, purchased protein, candidate aging factor (protein, UniProt Q2I0M5 20-234, looked up)", "R-spondin-4": "LNRRKKQVGTGLGGNCTGCIICSEENGCSTCQQRLFLFIRREGIRQYGKCLHDCPPGYFGIRGQEVNRCKKCGATCESCFSQDFCIRCKRQFYLYKGKCLPTCPPGTLAHQNTRECQGECELGPWGGWSPCTHNGKTCGSAWGLESRVREAGRAGHEEAATCQVLSESRKCPIQRPCPGERSPGQKKGRKDRRPRKDRKLDRRLDVRPRQPGLQP"}},
  "system": "young fibroblasts",
  "experiment": "Addition of aging factor proteins to young fibroblasts, quantitative RT-PCR",
  "assay_type": "cell-based",
  "conditions": "protein added at 10 μg/ml vs 0 μg/ml, cultured 2 days",
  "method": "Dermal fibroblasts collected from the back skin of an adult were cultured in Dulbecco's Modified Eagle Medium supplemented with 10% FBS. As normal fibroblasts (young fibroblasts), cells with a culture period of less than 1 month and a Pdl<30 were used. The same cells were cultured for 3 months or more and slowly proliferating cells (having a doubling time of less than 0.5/week and a Pdl>50) were used as the senescent fibroblasts. Normal fibroblasts were seeded in the upper layer of a six-well Transwell system (Falcon; Franklin Lakes, N.J.) filled with Dulbecco's Modified Eagle Medium supplemented with 10% FBS to a density of 1250 cells/cm^2. Sub-constructed senescent fibroblasts and normal fibroblasts were each seeded in two wells of the lower layer of the Transwell system. After combining the upper layer and the lower layer of the Transwell system for 2 days under a humidified atmosphere at 37° C. and 5% CO2, the cells in the upper layer and the cells in the lower layer were recovered using Qiazole (Qiagen).\nFrom the recovered cell lysate, RNA was extracted using an RNeasy Protect Kit (Qiagen) according to the product description and […] into cDNA using Superscript VILO (Invitrogen) according to the product description. Real time PCR was performed on LightCycler (Roche) using […] as an internal standard and using primer pairs for the following genes. The cycle threshold (Ct value) calculated using Lightcycler software ver. 3.5 was normalized for each sample GAPDH mRNA.\nProteins of the candidate aging factors (IGFBP 7 and RSPO 4) (purchased from Serotec, R&D SYSTEMS) were added to a medium for culturing young fibroblasts at concentrations of 0 μg/ml and 10 μg/ml, cultured for 2 days, and the cells were collected using Qiazole (Qiagen). The recovered cell lysate was examined for the expression levels of MMP1 and collagen in the same manner as described above for quantitative RT-PCR. IGFBP7 and RSPO4 reduced the expression of collagen and increased the expression of MMP1.",
  "data": [
    {"molecule": "B1", "values": [
      {"measurement": "expression of MMP1", "result": "increased"},
      {"measurement": "expression of collagen", "result": "reduced"}
    ]},
    {"molecule": "B2", "values": [
      {"measurement": "expression of MMP1", "result": "increased"},
      {"measurement": "expression of collagen", "result": "reduced"}
    ]}
  ]
}
